# Test results published in patent US20240092876A1 (priority 2020, published 2024).
# Columns and labels:
# [1] = biological target: N2_A_Leningrad_134_17_57 (influenza A virus); test: flow cytometry on NA-expressing cells
# [2] = biological target: N2 neuraminidase from A/Washington/01/2007 (Influenza A virus A/Washington/01/2007); test: flow cytometry on NA-expressing cells
binder,measurement,setting,value
"FNI19-v3 (antibody, V domains shown) VH: QVQLVQSGAEVKKPGSSVKVSCKASEGTFNKYTISWVRQAPGQGLEWMGGIIPISGIANYAQKFQGRVAITADESTTTAYMELSSLRSEDSAVYYCATAVSDYFNRDLGWEDYYFPFWGQGTLVTVSS VL: EIVMTQSPATLSVSPGARATLFCRASRSVSDNLAWYQQKPGQAPRLLIFGASTRATGVPARFSGSGSGTQFTLTISSLQSEDFAVYYCQHYNIWPPWTFGQGTKVEIK",MFI normalized vs wt,[1],1.04
same,MFI normalized vs wt,[2],0.83
